Source: the DeepSol protein solubility set

Assay: soluble on expression in E. coli; label from the status in PepcDB or PDB records

**Q.** For “MGSDKIHHHHHHVQKMAEGSHSAITLEAGKYRATVDPLGAALRTLHWGERELVWGYPEGRPQLAQGQILLPWPNRIDHGRYSFGGTTYQLEITEPELDNAIHGLTSTLLWQPSQITADSVRFTLAFDGAPGYPFRMEFWVCYSLDPDHGLHVRIGAQNTGDGPAPYGHGSHNYLTLGLPVDEVTLQLPAAEWQPVNERMIPTGPVRSVAGTDYDFRTPRQVGPTVLDTAFTGLRFDEAGRSWTVLSAGELCVGLWADDSHPWLQVFSADYPGPERRRHLAVEPMTCPPNAFVTGTDLIVLDPGQSIESSFGITSTPE”, which “soluble on expression in E. coli” value is on record?
**A.** not soluble

**Q.** For “MNVLVIEDDKVFRGLLEEYLSMKGIKVESAERGKEAYKLLSEKHFNVVLLDLLLPDVNGLEILKWIKERSPETEVIVITGHGTIKTAVEAMKMGAYDFLTKPCMLEEIELTINKAIEHRKLRKENELLRREKDLKEEEYVFESPKMKEILEKIKKISCAECPVLITGESGVGKEVVARLIHKLSDRSKEPFVALNVASIPRDIFEAELFGYEKGAFTGAVSSKEGFFELADGGTLFLDEIGELSLEAQAKLLRVIESGKFYRLGGRKEIEVNVRILAATNRNIKELVKEGKFREDLYYRLGVIEIEIPPLRERKEDIIPLANHFLKKFSRKYAKEVEGFTKSAQELLLSYPWYGNVRELKNVIERAVLFSEGKFIDRGELSCLVNSK”, which “soluble on expression in E. coli” value is on record?
**A.** soluble

**Q.** For “MAGRKEEELKDLTLLGNQGTTYSFTYNPNLLEVFDNKHPDRDYFVKFNCPEFTTLCPKTGQPDFATIYITYIPDKKCVESKSLKLYLFSFRNHGDFHEDCVNIIMNDLIKVMEPRYIEVWGKFTPRGGISIDPYCNWGRPGTKYEKMAEYRLLNHDLYPEKVDNR”, which “soluble on expression in E. coli” value is on record?
**A.** not soluble

**Q.** For “MSLPVCYYLDATGGDDNNSGLAPDEAWKSLEKLRGVKLLPGNKVLLKRGEVFNGELEITGQGIPEDRIYIDAYGDDERKPCIVGYDTSLYAARICNSDYITMQNLEIVNTGRQPLPYRSGLKIECMDYGVSQNIVVNNVTVRDVNGSLVKEKGGGCGIYIVNGGEKKISTFNRLTIENCHILRCTRNAMIWAAYSDRQNWHPSKHTVIRGNLIEEVPGDGIVPIGCDSTLIEYNVMRDCPDMLPDTEAAAGIWPWSCDNTLVQFNEVSGHKAPWDAQGFDSDWNCRGTVIQYNYSHDNYGGLVLVCNDGTADASFNVGNLGTIVRYNVSIGDGVRPEPTRAGMFSPAVHLAGPVKDSRITRNIIHVNRKPAADIDRTMITLDSWGGYPDSTFISGNIFYAPESSRFQLTESTHNFFEGNYYLGRFEKLPEDGKACQSAEIYQKEVLAKDENGYQGLALLMDTVEVTGVKGVFVNKEAIENFFSRLEKEGHHHHHH”, which “soluble on expression in E. coli” value is on record?
**A.** soluble

**Q.** With “SRDGSVAPKERINIRYVPATGDTQEDVELPLSMMVVGDFTARADETPIEERTPINIDKDNFNDVLEGMSPNVKVNVENRLSDEEGAQIGVDLTFQNMKDFSPEAIAKSVPELNSLLELREALVALKGPLGNVPAFRKKIASVLQDEEARKKLLDELSIG” as the sequence, how does the “soluble on expression in E. coli” value read?
**A.** not soluble

**Q.** Which “soluble on expression in E. coli” value does the source give for “MEEKKEDKFILLKNLYEEWKDCTRCDLHKSRTRVVPGDGNPYSLLVFVGEAPGEEEDRQGKPFVGRAGQLLNRLIEEVLGMKREDVYITNVCKCRPPQNRKPTPIEMRACFPYLKKEIEIIQPKVICCLGATAGEGILGKSLRITKVRGQVFPYPYNPRIKVFLTYHPAYVLRNPKEETTIIKDFEKLKELLTQE” here?
**A.** soluble

**Q.** Which “soluble on expression in E. coli” value does the source give for “SMLSAASRVVSRAAVHCALRSPPPEARALAMSRPPPPRVASVLGTMEMGRRMDAPASAAAVRAFLERGHTELDTAFMYSDGQSETILGGLGLGLGGGDCRVKIATKANPWDGKSLKPDSVRSQLETSLKRLQCPQVDLFYLHAPDHGTPVEETLHACQRLHQEGKFVELGLSNYASWEVAEICTLCKSNGWILPTVYQGMYNATTRQVETELFPCLRHFGLRFYAYNPLAGGLLTGKYKYEDKDGKQPVGRFFGNSWAETYRNRFWKEHHFEAIALVEKALQAAYGASAPSVTSAALRWMYHHSQLQGAHGDAVILGMSSLEQLEQNLAATEEGPLEPAVVDAFNQAWHLVAHECPNYFR” here?
**A.** soluble

**Q.** Which “soluble on expression in E. coli” value does the source give for “MSEFTQDTVQKPIDELVTWVKQYDFSLNLPTERLAFLLAIAVLSNERFDEELGEGELHDAFAIVTRLFAESGEASAFRANNAINDLVKQRLLSRFTSEMTEGASIYRLTPLAIGITDYYVRHREFSKLKLSIQLSMVADEMAKAVESAQQGGSVAHWRKNVFGVLKYSVSEIFDRIDLNQRVMDEQQQSVKEQIADLLNKDWRDAINNCEALLSETSATLRELQDTLQAAGDELQTQILDIQECVYGDLELDFIEETLSALQMKLDRITSWGQQSIDLWIGYDRHVHKFIRTAIDMDQNRAFSQRLRQSMNDYFEQPWYLTYADAERLSDLRDETLTLRDEEVTGHVPTEVEYEELQQVNDELAQRIGDMLKVHKEQGAAIDLALVLRDYLASHPRTHHFDLARMVVDQAVRLGYSESDYRAIQPDWTAINDFGAKVQANVIDRYLEHHHHHH” here?
**A.** soluble

**Q.** For “MGSDKIHHHHHHMVHGVPCFVAHRGYPALYPENSLVGIRAAVQAGARYVEIDIQLSRQLTPYLCHDDNLKRLTGRNAYLTRLKDDEIDTLTVSCPDVTCSSGTEPAPIPRLAEFCRYLAQHPQVTTFVEIKSESIARFGLSKTMDAILPVIDVVHTQCVLISFDWELIALIKSHQMYKTGWIIEHWTDEQSAMAARLQPDYLFSSIRCLPEKLDQLWPGPWQWVIYTVDDYATALGYAEAGITLIETDTISTLLAP”, which “soluble on expression in E. coli” value is on record?
**A.** not soluble

**Q.** With “MIMATLVITIGNDDCVNEGINIICNQCRPIYMNEDNKIIVNVVGEEKFGAGHNAEYITKQVDKHLGIIRDYIIEGLTDCYVEYDENGKEIFIPKTK” as the sequence, how does the “soluble on expression in E. coli” value read?
**A.** not soluble

**Q.** Which “soluble on expression in E. coli” value does the source give for “MAHHHHHHMMSLAIEAVKDFLVKLQDDICEALEAEDGQATFMEDKWTREGGGGGRTRVMVNGAVIEKGGVNFSHVYGKGLPGSSTERHPDMTGCNFQAMGVSLVIHPKNPHVPTSHANVRLFVAEREGKEPVWWFGGGFDLTPYYAVEEDCRYFHQVAQDLCKPFGADVYTRFKVWCDEYFFIPYRNEARGIGGLFFDDLNEWPFEKCFEFVQAVGKGYIDAYIPIVNRRKNTPYTEQQVEFQEFRRGRYAEFNLVIDRGTKFGLQSGGRTESILISLPPRARWGYDWQPEPGTPEARLTEYFLMKRQWV” here?
**A.** soluble

**Q.** For “MDEDVGLEATNYSRGDESRSEEQEKNVVRWRIVQQSTGPNPKPRHGHRAVVLKELIVIFGGGNEGMIDELHAYNTQKREWTAPQCCGDVPTPAAAFGAISLGNKIYRFGGMTEYGKYTNDLYELQSTRWEWRRLNPRVHSNGHLPCPRIGHSFVVSQKSQKAYVFGGLSNDLNDPKRNVPHYLDDLYVINLSGPQHLIWEKLNATGPGPISRESHTAVIYEKDSISRMVVYGGMNGVRLGDLWYLNLNTLHWTEIKFDDPRTGIPPMPRSLHSSVLIGDKMFVYGGWVPLLEHASTEQQTEKEWKCTSSLGCWNITEDRWVPLHLYCSDEDTIPRGRAGHCAAAVGDRMYIWSGRDGYRKAWSNQVCCRDMWLLDTILPEQPGKVQLGRAGFNSLEISWPIVQGASGYFLQIGFGDAKEQSVSPIKRATTSPRKQPSIVPPSQKETEQSPKKPQGTAPSIISTQGTTYTAPADPKPATDEGGLPQDLFEDTEKNETASPKRSNDAQSADSSTCEQKKTDESGLEEDSEKDQKPSDAGETDEMKEENGDDDLPWFDVGIIDKATINVTHYFNDRQQSLEKQLNDLIDHNAFKCVNDSVFTTEDKIPLINGQSYRFRVSAINGLGKGAWSETASCKTCVPGYPSAPSSIRITKSHEGAQLTWEPPSNTNISGKIIEYSVYLAVKNQSANSADSQLAFMRVYCGPQADCQVLQSNLGTAFVDQTNKPAIIFRIAARNEKGYGPATQVRWLQDQQKIPVRTNYPNNSGFIYQQHGGQQKRARFDHQ”, which “soluble on expression in E. coli” value is on record?
**A.** not soluble

**Q.** Which “soluble on expression in E. coli” value does the source give for “MQSSNGEHHQQKQTPYFMNAPCDPALLALAQQTFLGFQPQKNMYQHGFPPMLPHRNLIPSLAAAIPEMDKLMLEEPIEAGSMPYRRATNKNISVSDDSFNNMHRSSSSSQYRRHSAQWETMTDDERESVQRQKRKEEAFKTALCDAFKRSGSCPYGEACRFAHGENELRMPSQPRGKAHPKYKTQLCDKFSNFGQCPYGPRCQFIHKLKKGLPLSEYNRALQEGEISPARDDEITNPDESSSQVEDLSELHHRQHQQQQQYQQRYRRPPFNNFHDMSDSGYSAPRRRLHHQFEHLGSEQQQQQQQQTPAPKIVYPSMQVVNIEMATGDGPKRSDNHHYHHHHHQRRHIPAPPSTGPLSSLIDQADYEASMASGKMFGKPENIRTYGAMIRANEEHVERNQTGVVKKERATVLPKRDLSLIREEDTLLVDGSHLNMTSSAILPAHQIPSTTTTSTSSPVQEQPWYEKIFGKMTMIQEESSMGGEDDDAHEDHYSR” here?
**A.** not soluble

**Q.** With “MKKAAVSGRLYEVFDVFADKALAGNPLAIVHDCEGLTDACMQAIAREFNLSETVFIHAPANPAHEASVRIFTPAYELPFAGHPTVGAAVSLARRQKTGDETDRLVTLEEKVGIVRCGVILGENSAFAEFDLPRLPEQVDVKIEREEAAAAIGLGTHEIGFENHVPGVWSAGTPCLLVPVHNLIAAAKVSIDPVYVSESLPHVGGRPLPIYVYCRETILFNSHFHARMFVIGANVYEDPATGSAVAAFAGMIQQNDKPVDGSSQWWIEQGMEMGRPSRIRLELDVSKQKLVSARIGGTAVKIAEGRLFVLEHHHHHH” as the sequence, how does the “soluble on expression in E. coli” value read?
**A.** not soluble

**Q.** Which “soluble on expression in E. coli” value does the source give for “MVDLYQLFKTRTPIIGVVHLLPLPTSPRWGGSLKAVIDRAEQEATALASGGVNGIIVENFFDAPFTKNQVDPAVVSAMTVVVQRIQNLVTLPVGLNVLRNDGKSAMAIASCVRAQFIRVNVLTGVMATDQGLIEGEAHELLRYRRELGSDVQILADVLVKHARPLSSPNLTVAVKDTIERGLADAVILSGWATGSPPNQEDLELACDAANGTPVFIGSGASWENIATLLQAANGVIVSSSLKRHGRIEQPIDPIRVSQFVEAAHRSWNSKGESKSVSSITIHSLEHHHHHH” here?
**A.** not soluble

**Q.** With “MSLPQSKVLTSFGTANRTPRAAETHPLTWRLRDDGQPVWLEEYQTKQGYDAVRKALGQMSPDEIVSTVKDAGLKGRGGAGFPTGVKWGLMPKDESMNIRYLLCNADEMEPNTWKDRLLMEQLPHLLIEGMIISAKALKAYRGYIFLRGEYVDAAINLRRAVEEAKAAGLLGKNILGSGFDFELFVHTGAGRYICGEETALINSLEGRRANPRAKPPFPAVSGVWGKPTCVNNVETLCNVPAIIGNGVAWYHTLALPGSEDHGTKLMGFSGKVNNPGVWELPFGITARELFEGYAGGMRSGYRLKAWQPGGAGTGFLLPEHLDAQMYTAGIGKVGTRMGTGLAMAVDDSISMVSLLRNMEEFFARESCGWCTPCRDGLPWSVKLLRSLERGEGQEGDLATLEQLCNFLGPGKTFCAHAPGAVEPLASAIKYFRSEFEAGIKGSGDNRKSIKGIQPNLLGERWAAALEHHHHHH” as the sequence, how does the “soluble on expression in E. coli” value read?
**A.** soluble

**Q.** Which “soluble on expression in E. coli” value does the source give for “MEKKKVTIPQVCHGHSRPVVDLFYSPITPDGFFLISASKDSHPMLRNGETGDWIGTFEGHKGAVWSSCLDNNALRAASASADFSAKLWDALTGDVLHSFEHKHIVRACAFSEDTKSLLTGGFEKILRVFDMNRLDAPPTEVDKSPGSIRTLTWLHSDQTILSSCTDIGGVRLWDVRSGKIVQTLETKSPVTSAEVSQDGRYITTADGSTVKFWDANHFGLVKSYDMPCNIESASLEPKSGEKFVAGGEDMWVRVFDFYTGEEIGCNKGHHGPVHCVRFTPTGLSYASGSEDGTIRIWQTTPANPEENETSSRRVKHSVDEVSKKIEGFHINKEGKTAEKPSDT” here?
**A.** soluble

**Q.** With “MSLSTIREVAKLANVSIATVSRVLNNDTKYKMTEETKNRVLDAVTQLNYIPITTPRKKMTVTNSNICKDAKIGCILRVTKKGYNDPYYMSILAGVETQLREVGIELSFIKSAPILQDKSHLASTFSDSLDGLILMEPLNEDIYHYIKKRVPHVVGIDTLRDDIDDVGYDHLENGILATQHLIEKGHKEIGFIGGSGESQDIKDSKRYQGYVIAMHKAGLPIQKKWIIDCGWNEDECVAKVDALCKSNHYPTAFFAASDLMAMAAMKSFYTNGISVPKRVAVIGMSDIEMSQYSNPPLTTYHVPKEEIGRVATNLLLARIQGYETLPQKIILPTTFVERSSTEGHHHHHH” as the sequence, how does the “soluble on expression in E. coli” value read?
**A.** soluble
